In PMC7474084 one finds Kd data, which are given here for two substances.

Broadly, the Kd is the free concentration of one partner at which half of the binding sites on the other are occupied at equilibrium, for simple one-to-one binding. Low readings indicate tighter binding, high ones weaker binding.

The assay has as its target Echovirus 30 (E30) mature virion (F-particle) (Echovirus 30). Put plainly: SPR; BIAcore T100; […]; PBS with 0.05% Tween-20, 25 °C; global fit.

“human CD55, extracellular domain (receptor)” registered a Kd of 2000 nM. For “human FcRn, extracellular domain (from UniProt P55899 24-297; P61769 21-119) (receptor)”, the dissociation constant (Kd) worked out at 2000 nM.
